This note sets out measurements from paper PMC5890618, “Structural and Functional Insights into Bacillus subtilis Sigma Factor Inhibitor, CsfB” (Structure(London, England:1993), 2018).

Sequences and labels used below:
B1: CsfB^A48E (full-length CsfB variant A48E, residues 1-64) (natural protein, Bacillus subtilis, UniProt P37534 1-64, looked up)
chain: MDETVKLNHTCVICDQEKNRGIHLYTKFICLDCERKVISTSTSDPDYEFYVKKLKSIHTPPLYS
notes: Anti-sigma factor CsfB (also called Gin), Bacillus subtilis strain PY79, full length, residues 1-64, with A48E at the known cleavage point; Made by site-directed mutagenesis of pNIC28-CsfB; The His-tag was removed with TEV 'when required'; 15N-labelled for the NMR titrations; also called Gin A48E; source: E. coli BL21(DE3)pLysS, purified (HisTrap Ni Sepharose, Superdex75 SEC)
B3: σ^E (truncated sigma factor E, residues 17-239, lacking the N-terminal membrane-anchored pro-sequence) (domain or fragment, Bacillus subtilis, UniProt P06222 17-239, looked up)
chain: MKLGLKSDEVYYIGGSEALPPPLSKDEEQVLLMKLPNGDQAARAILIERNLRLVVYIARKFENTGINIEDLISIGTIGLIKAVNTFNPEKKIKLATYASRCIENEILMYLRRNNKIRSEVSFDEPLNIDWDGNELLLSDVLGTDDDIITKDIEANVDKKLLKKALEQLNEREKQIMELRFGLVGEEEKTQKDVADMMGISQSYISRLEKRIIKRLRKEFNKMV
notes: Cloned into pET28-TxrA; The tag was removed with TEV 'when required'; also called sigma E; SigE; source: E. coli BL21(DE3)pLysS, purified (HisTrap Ni Sepharose, Superdex75 SEC)

Series [1] has as its target T1, σ^G (recombinant full-length sigma factor G, residues 1-260) (Bacillus subtilis, UniProt P19940 1-260).
T1 construct: Cloned into pET-46; also called sigma G; SigG; source: E. coli BL21(DE3)pLysS, purified (HisTrap Ni Sepharose, Superdex75 SEC)
T1 sequence (looked up): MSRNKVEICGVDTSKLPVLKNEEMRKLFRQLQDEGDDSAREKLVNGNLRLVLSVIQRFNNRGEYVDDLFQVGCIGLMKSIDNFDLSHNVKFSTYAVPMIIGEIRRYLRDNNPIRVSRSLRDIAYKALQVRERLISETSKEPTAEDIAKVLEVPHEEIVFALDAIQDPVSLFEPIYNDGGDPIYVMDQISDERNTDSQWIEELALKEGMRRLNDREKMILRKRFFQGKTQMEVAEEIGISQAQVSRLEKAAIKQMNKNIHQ
As to the kind of experiment: NMR titration; 15N-labelled CsfB (100 uM for CsfB^A48E) titrated with unlabelled sigma factor up to 1:2 molar equivalents; 1H-15N SOFAST-HMQC; 298 K; 50 mM HEPES pH 7.5, 150 mM KCl, 0.5 mM TCEP. The settings on record: both partners purified.

For series [2], the target named is B3. Put plainly: ITC; cell 60 uM CsfB^A48E, syringe 395 uM σ^E; 25°C; 19 injections of 2 ul; 50 mM HEPES pH 7.5, 150 mM KCl, 0.5 mM TCEP; fitted assuming 1:1 stoichiometry. The settings on record: both partners purified.
Series [3] deals with the molecule itself. As to the kind of experiment: NMR solution structure; CsfB 1-48 dimer, >500 uM, 303 K, 50 mM HEPES pH 7.5, 150 mM KCl, 0.5 mM TCEP; intermolecular NOEs from 12C-filtered, 13C-edited NOESY on a mixed labelled/unlabelled dimer; ARIA2.3 with C2 symmetry.
Series [4] has as its target B1. Put plainly: ITC; cell 60 uM CsfB^A48E, syringe 395 uM σ^E; 25°C; 19 injections of 2 ul; 50 mM HEPES pH 7.5, 150 mM KCl, 0.5 mM TCEP; fitted assuming 1:1 stoichiometry. The following applies: both partners purified.

Take B1: in series [1], the binding result was “binds”. In series [2], this molecule came in with a dissociation constant (Kd) of 12.5 ± 2.4 nM.

B2: CsfB^1-48 (truncated wild-type CsfB, stable degradation product, residues 1-48) (domain or fragment, Bacillus subtilis, UniProt P37534 1-48, looked up)
chain: MDETVKLNHTCVICDQEKNRGIHLYTKFICLDCERKVISTSTSDPDYA
notes: Produced as N-terminally histidine-tagged full-length CsfB that degraded to 1-48; Symmetrical homodimer by NMR; also called cleaved CsfB; truncated variant; source: E. coli BL21(DE3)pLysS, purified (HisTrap Ni Sepharose, Superdex75 SEC); arises by degradation of recombinant full-length CsfB
Regarding B2, in series [3], the “stoichiometry N” value was 2.

With B3, in series [4], the dH was -8.04 ± 0.04 kcal/mol and the “stoichiometry N” value amounted to 1.01 sites.
